Data from the Human Domainome abundance scans (Beltran et al. 2025).
± gives the uncertainty stated by the source.

B1: GA-binding protein alpha chain, residues 172 to 250; numbered along this chain, Q06546 (parent)
chain: GYRKEQERLGIPYDPIQWSTDQVLHWVVWVMKEFSMTDIDLTTLNISGRELCSLNQEDFFQRVPRGEILWSHLELLRKY

Variants of: B1
Experiment: abundance fitness (aPCA) (normalised: wild type 0, dead -1); higher = more abundant; growth selection in yeast, the domain comes from the species named
Settings: Homo sapiens
Work on GYRKEQERLGIPYDPIQWSTDQVLHWVVWVMKEFSMTDIDLTTLNISGRELCSLNQEDFFQRVPRPEILWSHLELLRKY yielded an abundance fitness of -0.019 ± 0.04. GYRKEQERLGIPYDPIQWSTDQVLHWVVWVMKEFSMTDIDLTTLNISGRELCSLNQEDFFQRVPRQEILWSHLELLRKY showed an abundance fitness of -0.773 ± 0.17. GYRKEQERLGIPYDPIQWSTDQVLHWVVWVMKEFSMTDIDLTTLNISGRELCSLNQEDFFQRVPRREILWSHLELLRKY showed an abundance fitness of -0.562 ± 0.04. Variant GYRKEQERLGIPYDPIQWSTDQVLHWVVWVMKEFSMTDIDLTTLNISGRELCSLNQEDFFQRVPRSEILWSHLELLRKY has an abundance fitness of -0.199 ± 0.037. Variant GYRKEQERLGIPYDPIQWSTDQVLHWVVWVMKEFSMTDIDLTTLNISGRELCSLNQEDFFQRVPRTEILWSHLELLRKY has an abundance fitness of -0.735 ± 0.17. For GYRKEQERLGIPYDPIQWSTDQVLHWVVWVMKEFSMTDIDLTTLNISGRELCSLNQEDFFQRVPRVEILWSHLELLRKY, the abundance fitness was -0.835 ± 0.083. Work on GYRKEQERLGIPYDPIQWSTDQVLHWVVWVMKEFSMTDIDLTTLNISGRELCSLNQEDFFQRVPRGAILWSHLELLRKY yielded an abundance fitness of -0.029 ± 0.039. Work on GYRKEQERLGIPYDPIQWSTDQVLHWVVWVMKEFSMTDIDLTTLNISGRELCSLNQEDFFQRVPRGCILWSHLELLRKY yielded an abundance fitness of -0.19 ± 0.11. Variant GYRKEQERLGIPYDPIQWSTDQVLHWVVWVMKEFSMTDIDLTTLNISGRELCSLNQEDFFQRVPRGDILWSHLELLRKY has an abundance fitness of -0.133 ± 0.08. GYRKEQERLGIPYDPIQWSTDQVLHWVVWVMKEFSMTDIDLTTLNISGRELCSLNQEDFFQRVPRGFILWSHLELLRKY gave an abundance fitness of -0.249 ± 0.088. With GYRKEQERLGIPYDPIQWSTDQVLHWVVWVMKEFSMTDIDLTTLNISGRELCSLNQEDFFQRVPRGGILWSHLELLRKY the abundance fitness was -0.027 ± 0.034. With GYRKEQERLGIPYDPIQWSTDQVLHWVVWVMKEFSMTDIDLTTLNISGRELCSLNQEDFFQRVPRGHILWSHLELLRKY the abundance fitness was 0.004 ± 0.083. GYRKEQERLGIPYDPIQWSTDQVLHWVVWVMKEFSMTDIDLTTLNISGRELCSLNQEDFFQRVPRGIILWSHLELLRKY gave an abundance fitness of -0.189 ± 0.09. Work on GYRKEQERLGIPYDPIQWSTDQVLHWVVWVMKEFSMTDIDLTTLNISGRELCSLNQEDFFQRVPRGKILWSHLELLRKY yielded an abundance fitness of 0.064 ± 0.12. With GYRKEQERLGIPYDPIQWSTDQVLHWVVWVMKEFSMTDIDLTTLNISGRELCSLNQEDFFQRVPRGLILWSHLELLRKY the abundance fitness was -0.249 ± 0.049. GYRKEQERLGIPYDPIQWSTDQVLHWVVWVMKEFSMTDIDLTTLNISGRELCSLNQEDFFQRVPRGMILWSHLELLRKY showed an abundance fitness of -0.147 ± 0.055. In the case of GYRKEQERLGIPYDPIQWSTDQVLHWVVWVMKEFSMTDIDLTTLNISGRELCSLNQEDFFQRVPRGNILWSHLELLRKY, the abundance fitness is reported as -0.077 ± 0.098. For GYRKEQERLGIPYDPIQWSTDQVLHWVVWVMKEFSMTDIDLTTLNISGRELCSLNQEDFFQRVPRGPILWSHLELLRKY, the abundance fitness was -0.239 ± 0.042. Variant GYRKEQERLGIPYDPIQWSTDQVLHWVVWVMKEFSMTDIDLTTLNISGRELCSLNQEDFFQRVPRGQILWSHLELLRKY has an abundance fitness of -0.121 ± 0.08. For GYRKEQERLGIPYDPIQWSTDQVLHWVVWVMKEFSMTDIDLTTLNISGRELCSLNQEDFFQRVPRGRILWSHLELLRKY, the abundance fitness was -0.101 ± 0.032. GYRKEQERLGIPYDPIQWSTDQVLHWVVWVMKEFSMTDIDLTTLNISGRELCSLNQEDFFQRVPRGSILWSHLELLRKY showed an abundance fitness of -0.057 ± 0.037. Work on GYRKEQERLGIPYDPIQWSTDQVLHWVVWVMKEFSMTDIDLTTLNISGRELCSLNQEDFFQRVPRGTILWSHLELLRKY yielded an abundance fitness of -0.038 ± 0.05. In the case of GYRKEQERLGIPYDPIQWSTDQVLHWVVWVMKEFSMTDIDLTTLNISGRELCSLNQEDFFQRVPRGVILWSHLELLRKY, the abundance fitness is reported as -0.118 ± 0.036. In the case of GYRKEQERLGIPYDPIQWSTDQVLHWVVWVMKEFSMTDIDLTTLNISGRELCSLNQEDFFQRVPRGWILWSHLELLRKY, the abundance fitness is reported as -0.153 ± 0.05. With GYRKEQERLGIPYDPIQWSTDQVLHWVVWVMKEFSMTDIDLTTLNISGRELCSLNQEDFFQRVPRGEALWSHLELLRKY the abundance fitness was 0.017 ± 0.046. In the case of GYRKEQERLGIPYDPIQWSTDQVLHWVVWVMKEFSMTDIDLTTLNISGRELCSLNQEDFFQRVPRGECLWSHLELLRKY, the abundance fitness is reported as -0.055 ± 0.06. With GYRKEQERLGIPYDPIQWSTDQVLHWVVWVMKEFSMTDIDLTTLNISGRELCSLNQEDFFQRVPRGEELWSHLELLRKY the abundance fitness was -0.044 ± 0.042. With GYRKEQERLGIPYDPIQWSTDQVLHWVVWVMKEFSMTDIDLTTLNISGRELCSLNQEDFFQRVPRGEFLWSHLELLRKY the abundance fitness was -0.053 ± 0.077. For GYRKEQERLGIPYDPIQWSTDQVLHWVVWVMKEFSMTDIDLTTLNISGRELCSLNQEDFFQRVPRGEGLWSHLELLRKY, the abundance fitness was -0.087 ± 0.039. Variant GYRKEQERLGIPYDPIQWSTDQVLHWVVWVMKEFSMTDIDLTTLNISGRELCSLNQEDFFQRVPRGEHLWSHLELLRKY has an abundance fitness of -0.095 ± 0.1. GYRKEQERLGIPYDPIQWSTDQVLHWVVWVMKEFSMTDIDLTTLNISGRELCSLNQEDFFQRVPRGELLWSHLELLRKY gave an abundance fitness of -0.037 ± 0.032. Work on GYRKEQERLGIPYDPIQWSTDQVLHWVVWVMKEFSMTDIDLTTLNISGRELCSLNQEDFFQRVPRGEMLWSHLELLRKY yielded an abundance fitness of -0.091 ± 0.058. With GYRKEQERLGIPYDPIQWSTDQVLHWVVWVMKEFSMTDIDLTTLNISGRELCSLNQEDFFQRVPRGENLWSHLELLRKY the abundance fitness was -0.194 ± 0.096. Variant GYRKEQERLGIPYDPIQWSTDQVLHWVVWVMKEFSMTDIDLTTLNISGRELCSLNQEDFFQRVPRGEPLWSHLELLRKY has an abundance fitness of 0.023 ± 0.035. Variant GYRKEQERLGIPYDPIQWSTDQVLHWVVWVMKEFSMTDIDLTTLNISGRELCSLNQEDFFQRVPRGEQLWSHLELLRKY has an abundance fitness of -0.077 ± 0.048.
